By IC50 is commonly meant the concentration that inhibits the measured activity by half. Usually EC50 stands for the concentration at which the effect is half-maximal. A high value points to a need for much substance.

For 2 molecules, IC50 and EC50 results are on record in paper PMC7117682, “A homogeneous SIRPα-CD47 cell-based, ligand-binding assay: Utility for small molecule drug development in immuno-oncology” (PLoS ONE, 2020).

Common to all, as to details: one partner purified
In assay [1] the target is T1, CD47 naturally expressed on CD47(+) Jurkat T lymphoma cells (human (endogenous in Jurkat), UniProt Q08722 19-323).
T1 construct: CD47, human, endogenous on the surface of Jurkat T lymphoma cells; also called cell-expressed CD47; native, cell surface expressed CD47; source: endogenous, on Jurkat cells (live or fixed in 4% paraformaldehyde)
T1 sequence (Q08722 19-323): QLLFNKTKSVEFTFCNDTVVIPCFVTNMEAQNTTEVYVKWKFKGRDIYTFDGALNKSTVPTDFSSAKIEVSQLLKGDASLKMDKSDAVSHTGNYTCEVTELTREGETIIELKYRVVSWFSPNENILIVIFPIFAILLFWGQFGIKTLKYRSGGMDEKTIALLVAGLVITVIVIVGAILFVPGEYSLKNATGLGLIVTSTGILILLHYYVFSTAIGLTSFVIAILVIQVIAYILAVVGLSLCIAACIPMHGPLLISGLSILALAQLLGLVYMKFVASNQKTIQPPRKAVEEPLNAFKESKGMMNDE
In words: laser scanning cytometry (LSC) on cells; competition on live CD47(+) Jurkat cells, 384-well, homogeneous: a fixed concentration of SIRPα-biotin (20 nM) co-incubated with a titration of the competitor or inhibitor, neutravidin-Alexa488.

Assay [2] addresses T1, CD47 naturally expressed on CD47(+) …. Description: laser scanning cytometry (LSC) on cells; titration of SIRPα-biotin on live DRAQ5-labelled Jurkat cells, 384-well, homogeneous (no wash), HEPES buffer (10 mM HEPES pH 7.5, 0.15 M NaCl), room temperature, neutravidin-Alexa488 0.5 μg/mL; SIRPα presented as a multimer on tetrameric neutravidin (avidity).
The target is the same in assay [3]. In words: laser scanning cytometry (LSC) on cells; titration of SIRPα-biotin on Jurkat cells fixed in 4% paraformaldehyde (30 min on ice), homogeneous, neutravidin-Alexa488; with or without 1% DMSO.

B1: SIRPα variant 1, non-biotin conjugated (cold) (domain or fragment, human, UniProt P78324 31-148, looked up)
chain: EEELQVIQPDKSVLVAAGETATLRCTATSLIPVGPIQWFRGAGPGRELIYNQKEGHFPRVTTVSDLTKRNNMDFSIRIGNITPADAGTYYCVKFRKGSPDDVEFKSGAGTELSVRAKP
notes: SIRPα allelic variant 1, human; non-biotin conjugated analog of the biotin-conjugated d1 construct; also called cold SIRPαV1; non-biotin conjugated SIRPαV1; source: produced as described in [33]
For the molecule B1, in assay [1], the half-maximal inhibitory concentration (IC50) stood at 7500 nM.

B2: SIRPα-Avi-biotin (soluble, biotin-conjugated SIRPα d1 construct; allelic variant not stated for the experiment) (domain or fragment)
chain: EELQVIQPDKSVLVAAGETATLRCTATSLIPVGPIQWFRGAGPGRELIYNQKEGHFPRVTTVSDLTKRNNMDFSIRIGNITPADAGTYYCVKFRKGSPDDVEFKSG
modifications: biotin (biotin-conjugated, SIRPα-Avi-biotin)
As for B2, the EC50 in assay [2] is 4.6 nM; in assay [3], 1.3 nM.
